According to publication PMC12173945, “Import mechanism of peroxisomal proteins with an N-terminal signal sequence” (Nature Cell Biology, 2025):

B1: PEX7–GFP: PEX7 fused at the C terminus to a linker (SGSG) followed by mEGFP (protein)
chain: MLRYHMQGFSGYGVQYSPFFDNRLAVAAGSNFGLVGNGKLFILEIDRSGRIVEVNSFLTQDCLFDLAWNESHENQVLVAQGDGTLRLFDTTFKEFPIAIFKEHEREVFSCNWNLVNRQNFLSSSWDGSIKIWSPLRKQSLMTLTPRPLEITKMVDPLNAIILKKKSFTGISKNRNCVYQAQFSPHDQNLVLSCSGNSYASLFDIRLPSGKNQNNFLVHSGLEALTCDFNKYRPYVVATGGVDNAIRIWDIRMLNKNESATIKRTVPGQLHNSSCINEIPNAHGLAIRKVTWSPHHSNILMSASYDMTCRIWRDLSNDGAKETYKTNSTDATKGSIFNFTQHSEFVFGADWSLWGKPGYVASTAWDGNLFVWNGLG
modifications: left off: GST, N-terminal, cleaved | GFP, C-terminal, kept
B2: PEX7: full-length PEX7 from S. cerevisiae (GenBank accession no. NP_010426.1) (protein)
chain: B1 chain
modifications: left off: GST, N-terminal, cleaved

Key:
[1] = system: peroxisomes in Xenopus egg extract; assay: Peroxisomal protein import assay in Xenopus egg extract; format: biochemical, Xenopus laevis; conditions: GFP fusion, 1 h
Procedure: Import reactions were performed exactly as described in a previously published protocol. Briefly, extract was mixed with 500 nM of the indicated cargo and 100 nM of the indicated receptor variants with or without 100 nM PEX7, and incubated at 24 °C. Where stated, endogenous PEX5 was first depleted from the extract using agarose beads covalently conjugated to the high-affinity PEX5-binding domain from PEX14. Recombinant proteins were diluted in XBHS buffer (40 mM HEPES·KOH pH 7.7 at RT, 100 mM KCl, 1 mM MgCl2, 0.1 mM CaCl2 and 250 mM sucrose) before being added to the reactions. For imaging, an aliquot of each reaction was sandwiched between two 22 × 22 mm no. […] The samples were illuminated by an 80-mW solid-state 488-nm laser through a Di01-T405/488/568/647 dichroic (Semrock), and fluorescence was collected through a Nikon ×100 1.45 NA Plan Apo Lambda oil-immersion objective and a green-emission ET525/50 m (525 ± 25 nm) single-band bandpass filter (Chroma). […]
To calculate import rates in Xenopus egg extract, images were first thresholded to identify peroxisomes that were within the focal plane. A circular area with a diameter of 3 pixels was then centred on each local maximum and the mean fluorescence within this area was measured; the average fluorescence in the cytosol was then subtracted from the measured values. […]

[2] = system: YG hydrogel (wild-type YG-domain polypeptide of PEX13); assay: YG hydrogel permeation assay, wild-type hydrogel (Fig. 2, Fig. 3g, Extended Data Fig. 9d); conditions: wild-type hydrogel
Procedure: A solution of the purified wild-type YG-domain polypeptide (or the variant lacking the KPWE motif) was concentrated to 2 mM in 50 mM HEPES·NaOH pH 7.8 at RT, 2 M urea and 2 mM TCEP. Aliquots of 2 µl were then spotted on the bottom of multiple wells of a 96-well glass-bottomed plate (Cellvis, P96-1.5H-N), which was then sealed with a gas-impermeable AlumaSeal II film (Hampton Research, HR8-069) to prevent desiccation and incubated at RT for 24 h. Before each assay, the resulting gels were equilibrated overnight at RT in a 100-fold excess of Assay Buffer (25 mM HEPES·NaOH pH 7.8 at RT, 150 mM NaCl and 1 mM TCEP). A 0.5 µM solution of fluorescently labelled protein in Assay Buffer was then added to the samples, with or without additional components at the concentrations indicated in the text, and incubated at RT. Gels were imaged at the times indicated in the text using a Nikon A1R point-scanning confocal system consisting of an inverted Nikon Eclipse Ti microscope and a Nikon ×20 0.75 NA Plan Apo air objective. The objective was centred on the gel edge and focus was maintained 5 µm above the glass surface using the Nikon Perfect Focus System. Fluorescence was excited through a 405/488/561/647 quad-band dichroic (Chroma), using a 488-nm solid-state laser (Coherent) and a galvano scanner. A 50-nm emission band was collected on a gallium arsenide phosphide detector, using an ET525/50m (525 ± 25 nm) single-band bandpass filter (Chroma) and a pinhole dilated to 0.9 Airy units. Images were acquired using the Nikon NIS-Elements software with a pixel size of 1 µm and a 12-bit digitizer. Imaging parameters were configured to maximize the SNR while avoiding saturation. All samples intended to be compared were imaged using identical acquisition settings.
(§1) For the YG hydrogel permeation assay, images were first oriented such that each gel edge faced the same direction. Fluorescence profiles across the buffer–gel interface were then generated by centering a 60 × 300 µm rectangular area on the gel edge and then measuring the mean fluorescence at each position within this selection. To express the resulting values in terms of fold enrichment, the fluorescence at each position along the selection was normalized to the average fluorescence in the buffer and plotted in terms of the distance from the gel edge.
To calculate permeation rates through the YG hydrogel, a 60 × 300 µm rectangular area was first centred on the gel edge. The resulting region was then thresholded to demarcate the permeation zone (that is, the distance traversed by the fluorescent species) from the buffer and non-permeated part of the gel. The width of the area above the threshold was then measured and plotted as a function of time. A linear fit to the data yielded the permeation rate.

[3] = system: YG hydrogel (∆KPWE YG-domain polypeptide of PEX13); assay: YG hydrogel permeation assay, hydrogel lacking the KPWE motif (Fig. 3g); conditions: 1 h
Procedure: A solution of the purified wild-type YG-domain polypeptide (or the variant lacking the KPWE motif) was concentrated to 2 mM in 50 mM HEPES·NaOH pH 7.8 at RT, 2 M urea and 2 mM TCEP. Aliquots of 2 µl were then spotted on the bottom of multiple wells of a 96-well glass-bottomed plate (Cellvis, P96-1.5H-N), which was then sealed with a gas-impermeable AlumaSeal II film (Hampton Research, HR8-069) to prevent desiccation and incubated at RT for 24 h. Before each assay, the resulting gels were equilibrated overnight at RT in a 100-fold excess of Assay Buffer (25 mM HEPES·NaOH pH 7.8 at RT, 150 mM NaCl and 1 mM TCEP). […] Fluorescence was excited through a 405/488/561/647 quad-band dichroic (Chroma), using a 488-nm solid-state laser (Coherent) and a galvano scanner. […]
as §1

| Molecule | Import into peroxisomes in Xenopus egg extract [1] | Entry into YG hydrogel [2] | Entry into YG hydrogel lacking the KPWE motif [3] |
| --- | --- | --- | --- |
| B1 | enters peroxisomes only when it is assembled into a complex with PEX5 and cargo | readily entered the phase |  |
| B2 |  |  | some entry of PEX7 into YG hydrogels was observed in the absence of the KPWE motif |
